T1: TrnD (Bacillus thuringiensis, fluorescently labeled (in the MST of Fig. 5D only))
T1 chain: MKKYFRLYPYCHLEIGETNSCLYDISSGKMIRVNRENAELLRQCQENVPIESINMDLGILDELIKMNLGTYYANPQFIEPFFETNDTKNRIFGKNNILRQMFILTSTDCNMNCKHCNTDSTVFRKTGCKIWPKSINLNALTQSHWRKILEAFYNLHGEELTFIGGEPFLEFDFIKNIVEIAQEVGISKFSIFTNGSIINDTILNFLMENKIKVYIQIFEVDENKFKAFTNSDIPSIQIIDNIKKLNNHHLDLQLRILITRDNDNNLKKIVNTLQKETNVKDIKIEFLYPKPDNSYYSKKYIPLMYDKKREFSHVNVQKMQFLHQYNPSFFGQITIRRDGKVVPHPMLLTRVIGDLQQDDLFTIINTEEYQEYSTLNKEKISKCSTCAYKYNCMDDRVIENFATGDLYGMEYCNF

B1: TrnC (enzyme)
chain: MSKKRLSMMPFKTDKFSYALDGNTGRVIVADKPTLYIISHFHKFEKEELLKKTKGKFAELHQDYLTTYNYVSSLINMGMFYLSEKEDSDSPIDSKELAINSNQSQLILILTEKCNLRCEYCIYNDKYPKEMGYSDEEMDFETAKKAVDMYYELHMERVKRGHKRFPVITMYGGEPLLKFDLIKKVMEYAKGLMPDTLFYTTTNGTLLSEKMMDYFINNRIIITFSIDGFKENHDRNRVFVNGMPTFERAFKNIKRLQEKKKEQNIEQIISFNCCFDQYTDVYKVAKFFEEHYDLFNPFFVLYNQINPFDTLYFDWCDEQVKTGKWNFDKNNFKNAMQKIEHELYEAETCDDHFQQVAGPLVMKDFVLSIRNKDGQQQITRNSCIPTSKIAVSPDGTLTLCEKMCKKYPIGTVEKGLDWKAVDGVTEKLVRHFNSDSCKYCPIRTMCEACFMFLDENGRIKPSFCKSKKMAVKKNLESYFAKKEKGFDVMKVYNHTSDLDSVKEMVK
modifications: fluorescently labeled with RED-NHS (in the MST experiments where TrnC is the labelled partner)

Common to all, as to experiment: MST
The assay “TrnC” has as its target B1.
The next assay addresses T1, TrnD.
Another assay has as its target E79A mutant of TrnD (Bacillus thuringiensis).

Drawing on paper PMC12093266 (2025), this text covers Kd for three molecules.

Usually Kd stands for the free concentration of one partner at which half of the binding sites on the other are occupied at equilibrium, for simple one-to-one binding. With MEVLNKQNVNIIPESEEVGGWVACVGACGTVCLASGGVGTEFAAASYFL [TrnB], the dissociation constant (Kd) came out at 2470 nM with TrnC and 2110 nM with TrnD.

In the assay with E79A mutant of TrnD, B1 displayed an equilibrium dissociation constant (Kd) of 590 nM.

For MEVMNNALITKVDEEIGGNAACVIGCIGSCVISEGIGSLVGTAFTLG [TrnA], the Kd in the assay with TrnC was 5410 nM; with TrnD, 4430 nM.
